Ends that are not written are not given here.
Key:
Assay type in all cases: physicochemical
[1] = Transmission electron microscopy of aged peptides (Example 10); conditions: for fibrilar supramolecular ultrastructures by electron microscopy: peptides derived from amyloid proteins, mild conditions
Method: Transmission Electron Microscopy—A 10 μL sample of 8 mg/ml peptide solution in 10 mM Tris buffer, pH 7.2 aged for at least one day was placed on 400-mesh copper grids (SPI supplies, West Chester Pa.) covered by carbon-stabilized Formvar film. Following 1 minute, excess fluid was removed, and the grid was then negatively stained with 2% uranyl acetate in water for another two minutes. Samples were viewed in a JEOL 1200EX electron microscope operating at 80 kV.

[2] = Kinetic aggregation assay (turbidity at 405 nm) of IAPP peptide fragment and alanine mutants; conditions: 2 mM peptide, 10 mM Tris pH 7.2, 2% DMSO, room temperature
Method: To study self-assembly of the IAPP peptide derived fragments, aggregation and insolubilization kinetics were monitored using turbidity measurements at 405 nm.
Kinetic aggregation assay—Fresh peptide stock solutions were prepared by dissolving lyophilized form of the peptides in DMSO, a disaggregating solvent, at a concentration of 100 mM. To avoid any pre-aggregation, fresh stock solutions were prepared prior to each and every experiment. Peptide stock solutions were diluted into assay buffer and plated in 96-well plates as follows: 2 μl of peptides stock solutions were added to 98 μl of 10 mM Tris pH 7.2, resulting in a 2 mM final concentration of the peptide in the presence of 2% DMSO. Turbidity data was measured at 405 nm. A buffer solution including 2% DMSO was used as a blank. Turbidity was measured at room temperature over several time points.

[3] = Aggregate mean particle size by dynamic light scattering; conditions: 100 μM peptide, 1% DMSO, 10 mM Tris pH 7.2
Method: Therefore, the average size of the aggregates, formed by the various peptides, was determined using dynamic light scattering (DLS) experiments.
Method—Freshly prepared peptide stock solutions at a concentration of 10 mM were diluted in 10 mM Tris buffer pH 7.2 and further filtrated through a 0.2 μm filter to a final concentration of 100 μM peptide and 1% DMSO. Particle size measurement was conducted with a laser-powered ALV-NIBS/HPPS non-invasive backscattering instrument. Autocorrelation data was fitted using the ALV-NIBS/HPPS software to derive average apparent hydrodynamic diameters.

[4] = Congo red binding assay with polarization microscopy (Example 4)
Method: Congo red (CR) staining combined with polarization microscopy was utilized to test amyloidogenicity of the peptides of the present invention. […] Invest. 31:232-8; Lansbury (1992) Biochemistry 31:6865-70]. […] Staining was effected by the addition of 1 mM CR in 10 mM Tris buffer pH 7.2 followed by a 1 minute incubation. To remove excess CR, slides were rinsed with double-distilled water and dried. Saturated CR solutions solubilized in 80% ethanol (v/v) were used for poorly aggregating peptides. In such cases, staining was effected without rinsing. Birefringence was determined using a WILD Makroskop m420 (×70) equipped with a polarizing stage.

[5] = Negative staining electron microscopy of fibril formation (Example 5); conditions: 2 mM peptide incubated overnight
Method: Method—Peptide solutions (2 mM peptide in 10 mM Tris buffer pH 7.2), were incubated overnight at room temperature. Fibrils formation was assessed using 10 μl sample placed on 200-mesh copper grids, covered with carbon-stabilized formvar film (SPI Supplies, West Chester Pa.). Following 20-30 seconds of incubation, excess fluid was removed and the grids were negatively stained with 2% uranyl acetate in water. Samples were viewed in a JEOL 1200EX electron microscope operating at 80 kV.

[6] = Kinetic aggregation assay, turbidity at 405 nm (Example 8)
Method: Kinetic Aggregation Assay—freshly prepared peptide stock solutions were generated by dissolving the lyophilized form of the peptides in dimethyl sulfoxide (DMSO) at a concentration of 100 mg/ml. To avoid any pre-aggregation, fresh stock solutions were prepared for each experiment. […] Turbidity data were collected at 405 nm. Buffer solution containing the same amount of DMSO as the tested samples was used as blank, which was subtracted from the results. Turbidity was measured continuously at room temperature using THERMOmax ELISA plate reader (Molecular Devices, Sunnyvale Calif.).

[7] = Congo Red staining and birefringence (Example 9)
Method: Congo Red Staining and Birefringence—A 10 μL suspension of 8 mg/ml peptide solution in 10 mM Tris buffer, pH 7.2 aged for at least one day was allowed to dry overnight on a glass microscope slide. Staining was performed by the addition of a 10 μL suspension of saturated Congo Red (CR) and NaCl in 80% ethanol (v/v) solution as previously described [Puchtler (1966) Supra]. The solution was filtered via 0.45 μm filter. The slide was then dried for few hours. Birefringence was determined with a SZX-12 Stereoscope (Olympus, Hamburg, Germany) equipped with cross polarizers.

[8] = Fourier transform infrared spectroscopy of aged peptides (Example 11); conditions: for secondary structure by FT-IR (amide I): Calcitonin-derived peptides; for secondary structure by FT-IR: hIAPP peptide fragments, aged solutions from turbidity assay
Method: Fourier Transform Infrared Spectroscopy—Infrared spectra were recorded using a Nicolet Nexus 470 FT-IR spectrometer with a DTGS detector. Samples of aged peptide solutions, taken from turbidity assay, were suspended on a CaF2 widows (Sigma)-plate and dried by vacuum. The peptide deposits were resuspended with […] and subsequently dried to form thin films. The resuspension procedure was repeated twice to ensure maximal hydrogen to deuterium exchange. The measurements were taken using a 4 cm^−1 resolution and 2000 scans averaging. The transmittance minima values were determined by the OMNIC analysis program (Nicolet).

[9] = peptide solutions incubated for four days
[10] = hIAPP peptide fragments, 8 mg/ml, 8% DMSO, monitored two hours
[11] = hIAPP peptide fragments, 8 mg/ml aged at least one day
[12] = Calcitonin-derived peptides, 0.02M NaCl, 0.01M Tris pH 7.2, aged 2 days
[13] = Medin-derived peptides, aged 4 days

RALDFA
fibrilar supramolecular ultrastructures by electron microscopy [1]: filamentous structures were observed

G3A: alanine-scan mutant of the hIAPP peptide fragment, SEQ ID NO: 4 (NFAAILSS)
kinetics of aggregation (turbidity at 405 nm) [2]: essentially the same profile as that of wild type peptide | apparent hydrodynamic diameter of the structures formed [3]: very similar hydrodynamic diameters | Congo red binding and birefringence [4, 9]: bound CR and exhibited the characteristic green/gold birefringence | fibril structures by electron microscopy [5]: tangled net-like structures

LQNFTL
fibrilar supramolecular ultrastructures by electron microscopy [1]: filamentous structures were observed

FENKF
fibrilar supramolecular ultrastructures by electron microscopy [1]: filamentous structures were observed

FLVHS
turbidity at 405 nm [6, 10]: high turbidity | Congo Red birefringence [7, 11]: typical birefringence | structures by electron microscopy [1, 11]: large broad ribbon-like fibrils

SFFSFL (also: EG modification)
fibrilar supramolecular ultrastructures by electron microscopy [1]: filamentous structures were observed

NH2-DFNKF-COOH (H-DFNKF-OH)
Congo Red birefringence ([7]; Calcitonin-derived peptides): clear and strong | structures by electron microscopy [1, 12]: clearly seen with high frequency | secondary structure by FT-IR (amide I) [8]: consistent with anti-parallel β-sheet structure

NH2-NFGSVQ -COOH (H-NFGSVQ-OH)
turbidity at 405 nm ([6]; Medin-derived peptides): gradual increase in turbidity | Congo Red birefringence ([7]; Medin-derived peptides): characteristic bright and strong green-gold birefringence | structures by electron microscopy [1, 13]: Fibrillar structures were clearly seen

GLVFVS
fibrilar supramolecular ultrastructures by electron microscopy [1]: filamentous structures were observed

H-NAGSVQ-OH
turbidity at 405 nm ([6]; Medin-derived peptides): significantly lower turbidity | Congo Red birefringence ([7]; Medin-derived peptides): some degree of birefringence could still be detected | structures by electron microscopy [1, 13]: no clear fibrillar structures could be detected

GTFQIN
fibrilar supramolecular ultrastructures by electron microscopy [1]: filamentous structures were observed

SNFLN (also: EG modification)
fibrilar supramolecular ultrastructures by electron microscopy [1]: filamentous structures were observed

NH2-FGSVQ -COOH (H-FGSVQ-OH)
turbidity at 405 nm ([6]; Medin-derived peptides): gradual increase in turbidity | Congo Red birefringence ([7]; Medin-derived peptides): no birefringence | structures by electron microscopy [1, 13]: somewhat fibrillar and ordered structure could be seen

RDFLDR
fibrilar supramolecular ultrastructures by electron microscopy [1]: filamentous structures were observed

SFNNG (also: EG modification)
fibrilar supramolecular ultrastructures by electron microscopy [1]: filamentous structures were observed

SGIFTN (also: EG modification)
fibrilar supramolecular ultrastructures by electron microscopy [1]: filamentous structures were observed

NH2-FGSV -COOH (H-FGSV-OH)
turbidity at 405 nm ([6]; Medin-derived peptides): gradual increase in turbidity | Congo Red birefringence ([7]; Medin-derived peptides): no birefringence | structures by electron microscopy [1, 13]: no fibrillar structures could be found

NH2-DFN -COOH (H-Asp-Phe-Asn-OH)
Congo Red birefringence ([7]; Calcitonin-derived peptides): lower but significant | structures by electron microscopy [1, 12]: more ordered structures | secondary structure by FT-IR (amide I) [8]: consistent with a mixture of β-sheet and random structures

NFLVHSS
turbidity at 405 nm [6, 10]: high turbidity | Congo Red birefringence [7, 11]: typical birefringence | structures by electron microscopy [1, 11]: large broad ribbon-like fibrils | secondary structure by FT-IR [8]: classical for an anti-parallel β-sheet structure

NH2- FNKF-COOH (H-FNKF-OH)
Congo Red birefringence ([7]; Calcitonin-derived peptides): lower but significant | structures by electron microscopy [1, 12]: only amorphous aggregates could be found | secondary structure by FT-IR (amide I) [8]: typical of a non-ordered structure

FLVHSS
turbidity at 405 nm [6, 10]: high turbidity | Congo Red birefringence [7, 11]: typical birefringence | structures by electron microscopy [1, 11]: large broad ribbon-like fibrils | secondary structure by FT-IR [8]: major minimum at 1626

NFLVH
turbidity at 405 nm [6, 10]: almost no turbidity at all | Congo Red birefringence [7, 11]: powerful smear of birefringence at the edges of the sample | structures by electron microscopy [1, 11]: thin and short | secondary structure by FT-IR [8]: indicative of β-sheet

NFGAILSS
turbidity at 405 nm ([6]; hIAPP 22-29 and hydrophobic analogues, up to 24 hours): significant increase in turbidity | structures by electron microscopy ([1]; hIAPP 22-29 and analogues, five days of incubation): well-ordered fibrils

LFNQTG
fibrilar supramolecular ultrastructures by electron microscopy [1]: filamentous structures were observed

NFGSVQFV [published amyloidogenic octapeptide of Medin, reference compound]
turbidity at 405 nm ([6]; Medin-derived peptides): too fast to be measured | Congo Red birefringence ([7]; Medin-derived peptides): significant birefringence | structures by electron microscopy [1, 13]: Fibrillar structures were clearly seen

TLIFGG (also: EG modification)
fibrilar supramolecular ultrastructures by electron microscopy [1]: filamentous structures were observed

NH2-DFNK -COOH (H-DFNK-OH)
Congo Red birefringence ([7]; Calcitonin-derived peptides): lower level of birefringence | structures by electron microscopy [1, 12]: also formed fibrillar structures | secondary structure by FT-IR (amide I) [8]: less typical of a β-sheet structure

NH2-GSVQ -COOH (H-GSVQ-OH)
Congo Red birefringence ([7]; Medin-derived peptides): unexpected high level of birefringence | structures by electron microscopy [1, 13]: no fibrillar structures could be found

NH2-NFGSV -COOH (H-NFGSV-OH)
turbidity at 405 nm ([6]; Medin-derived peptides): highest degree of aggregation within minutes of incubation | Congo Red birefringence ([7]; Medin-derived peptides): very low degree of birefringence | structures by electron microscopy [1, 13]: network of fibrous structures

FLVH
turbidity at 405 nm [6, 10]: almost no turbidity at all | Congo Red birefringence [7, 11]: no birefringence | structures by electron microscopy [1, 11]: amorphous aggregates | amyloid fibril formation (EM, CR staining, FT-IR) ([1]; incubated for two months): no evidence for amyloid fibril formation was detected | secondary structure by FT-IR [8]: typical to random coil structure

ERGFF
fibrilar supramolecular ultrastructures by electron microscopy [1]: filamentous structures were observed

NFLVHSSNN
turbidity at 405 nm [6, 10]: very low turbidity | Congo Red birefringence [7, 11]: weaker characteristic birefringence | structures by electron microscopy [1, 11]: long thin coiling filaments | secondary structure by FT-IR [8]: large β-sheet content

wild type peptide: wild-type eight amino-acid hIAPP peptide fragment, NFGAIL motif followed by two serines, SEQ ID NO: 1 (NFGAILSS)
apparent hydrodynamic diameter of the structures formed [3]: very similar hydrodynamic diameters | Congo red binding and birefringence ([4]; peptide solution incubated for 14 days): significant CR birefringence | Congo red binding and birefringence [4, 9]: bound CR and exhibited the characteristic green/gold birefringence | fibril structures by electron microscopy [5]: tangled net-like structures

Reference: patent publication US8012929B2, “Peptides directed for diagnosis and treatment of amyloid-associated diseases” (Tel Aviv University Future Technology Development L.P., priority 2002, dated 2011)
